Laboratory results: PMC9490039 (iScience, 2022)

Molecular target: Kv7.2 wt (wild-type Kv7.2 channel subunit), tagged with EGFP or with mKate2 (human, UniProt O43526-1 1-872)
Experiment: FRET or BRET

increase of EGFP intensity after photobleaching mKate2 (FRET): 12.1%
B1: Kv7.2mut-EGFP (Kv7.2 with in-frame deletion of histidine 260) (natural protein)
chain: MVQKSRNGGVYPGPSGEKKLKVGFVGLDPGAPDSTRDGALLIAGSEAPKRGSILSKPRAGGAGAGKPPKRNAFYRKLQNFLYNVLERPRGWAFIYHAYVFLLVFSCLVLSVFSTIKEYEKSSEGALYILEIVTIVVFGVEYFVRIWAAGCCCRYRGWRGRLKFARKPFCVIDIMVLIASIAVLAAGSQGNVFATSALRSLRFLQILRMIRMDRRGGTWKLLGSVVYAHSKELVTAWYIGFLCLILASFLVYLAEKGENDFDTYADALWWGLITLTTIGYGDKYPQTWNGRLLAATFTLIGVSFFALPAGILGSGFALKVQEQHRQKHFEKRRNPAAGLIQSAWRFYATNLSRTDLHSTWQYYERTVTVPMYSSQTQTYGASRLIPPLNQLELLRNLKSKSGLAFRKDPPPEPSPSKGSPCRGPLCGCCPGRSSQKVSLKDRVFSSPRGVAAKGKGSPQAQTVRRSPSADQSLEDSPSKVPKSWSFGDRSRARQAFRIKGAASRQNSEEASLPGEDIVDDKSCPCEFVTEDLTPGLKVSIRAVCVMRFLVSKRKFKESLRPYDVMDVIEQYSAGHLDMLSRIKSLQSRVDQIVGRGPAITDKDRTKGPAEAELPEDPSMMGRLGKVEKQVLSMEKKLDFLVNIYMQRMGIPPTETEAYFGAKEPEPAPPYHSPEDSREHVDRHGCIVKIVRSSSSTGQKNFSAPPAAPPVQCPPSTSWQPQSHPRQGHGTSPVGDHGSLVRIPPPPAHERSLSAYGGGNRASMEFLRQEDTPGCRPPEGNLRDSDTSISIPSVDHEELERSFSGFSISQSKENLDALNSCYAAVAPCAKVRPYIAEGESDTDSDLCTPCGPPPRSATGEGPFGDVGWAGPRK
